# Measurements published in publication PMC3722153, “Refolding of a Thermostable Glyceraldehyde Dehydrogenase for Application in Synthetic Cascade Biomanufacturing” (PLoS ONE, 2013).
# B1: glyceraldehyde dehydrogenase (aldehyde dehydrogenase) from Thermoplasma acidophilum (enzyme, UniProt Q9HK01 1-493, looked up)
# chain: MDTKLYIDGQWVNSSSGKTVDKYSPVTGQVIGRFEAATRDDVDRAIDAAEDAFWAWNDLGSVERSKIIYRAKELIEKNRAELENIIMEENGKPVKEAKEEVDGVIDQIQYYAEWARKLNGEVVEGTSSHRKIFQYKVPYGIVVALTPWNFPAGMVARKLAPALLTGNTVVLKPSSDTPGSAEWIVRKFVEAGVPKGVLNFITGRGSEIGDYIVEHKKVNLITMTGSTATGQRIMQKASANMAKLILELGGKAPFMVWKDADMDNALKTLLWAKYWNAGQSCIAAERLYVHEDIYDTFMSRFVELSRKLALGDPKNADMGPLINKGALQATSEIVEEAKESGAKILFGGSQPSLSGPYRNGYFFLPTIIGNADQKSKIFQEEIFAPVIGARKISSVEEMYDLANDSKYGLASYLFTKDPNIIFEASERIRFGELYVNMPGPEASQGYHTGFRMTGQAGEGSKYGISEYLKLKNIYVDYSGKPLHINTVRDDLFQ
# notes: glyceraldehyde dehydrogenase (TaAlDH) of Thermoplasma acidophilum; calculated mass 56 kDa (56.4 kDa); they are written as one molecule; also called TaAlDH; AlDH; source: E. coli BL21 (DE3)
# Assays:
# purified protein [1] = substrate: NC(=O)c1ccc[n+]([C@@H]2O[C@H](COP(=O)(O)OP(=O)(O)OC[C@H]3O[C@@H](n4cnc5c(N)ncnc54)[C@H](O)[C@@H]3O)[C@@H](O)[C@H]2O)c1; experiment: purified protein; assay type: biochemical, Thermoplasma acidophilum; settings: 5 mM D-glyceraldehyde, 0-75 mM NAD+, 100 mM HEPES pH 6.2, 50°C, refolded enzyme 0.02 mg/mL, apparent, varied: cofactor
# Text: (§1) (glyceraldehyde dehydrogenase, aldehyde dehydrogenase from Thermoplasma acidophilum)
# purified protein [2] = substrate: NC(=O)c1ccc[n+]([C@@H]2O[C@H](COP(=O)(O)OP(=O)(O)OC[C@H]3O[C@@H](n4cnc5c(N)ncnc54)[C@H](OP(=O)(O)O)[C@@H]3O)[C@@H](O)[C@H]2O)c1; experiment: purified protein; assay type: biochemical, Thermoplasma acidophilum; settings: 5 mM D-glyceraldehyde, 0-0.24 mM NADP+, 100 mM HEPES pH 6.2, 50°C, refolded enzyme 0.02 mg/mL, apparent, varied: cofactor
# Text: as §1
# [3] = target: the molecule itself; experiment: SEC; Superdex 200 gel filtration, calibrated with molecular mass standards; 50 mg lyophilized TaAlDH dissolved in 10 mL 20 mM TRIS pH 8; soluble and refolded preparations
protein,measurement,setting,value
B1,Km,purified protein [1],22.13 ± 1.43 mM
same,Vmax,purified protein [1],1.86 µmol/min/mg
same,Km,purified protein [2],0.022 ± 0.001 mM
same,Vmax,purified protein [2],0.849 µmol/min/mg
same,stoichiometry N,[3],2
